The labels stand for the following.
B1: LG192C4 (VHH)
VHH: EVQLVESGGGLVQAGGSLRLSCEASGRTFSSYAMVGWFRQAPGKEREFVAAVTRWSGARTVYADSVKGRFTISRDNAENTVYLQMNSLKPEDTAVYTCAADSTNRNSGAVYYSWAYDYWGQGTQVTVSS
B2: LG214F8 (VHH)
VHH: EVQLVESGGDLVQAGGSLRLSCVASGSTYSINAMGWYRQAPGKLRELVAAFRTGGSTDYADSVKGRFTISRDTAKNTVYLQMNSLKPEDTAVYYCNAEVIYYPYDYWGQGTQVTVSS
B3: LG214C10 (VHH)
VHH: EVQLVESGGGLVQPGGSLRLSCAASGFIFGSYDMSWVRQAPGKGPEWVSGINSGGGSTGYADSVKGRFTISRDNAKNTLYLQMNSLKPEDTAVYYCSTNLYPTTDDVWGQGTQVTVSS
B4: LG213D6 (VHH)
VHH: EVQLVESGGGLVQPGGSLRLSCAASGFTFGDSDMSWVRQAPGEGPEWVAGINSGGGSTVYADSVKGRFTISRDNAKNMLYLQMNSLKPEDTAVYLCAQGLMAEVTAGYWGQGTQVTVSS
B5: LG214A8 (VHH)
VHH: EVQLVKSGGGSVQAGGSLRLSCAASGGTFNPYVMAWFRQAPGNEREFVARIRWSGGDAYYDDSVKGRFAITRDAAKNTVHLQMNSLKPEDTAVYYCAAATYGYGSYTYGGSYDLWGQGTQVTVSS
B6: LG213B7 (VHH)
VHH: EVQLVESGGGLVQAGGSLRLSCTVSGDTFDNSAAGWYRATSETQRELVARIRSSGSTNYADSVKGRFTVSRDNAKNTVYLQMNSLKPEDTAVYYCNVVSYGEYFWGKGTLVTVSS
B7: LG213D7 (VHH)
VHH: B6 VHH
B8: LG212A2 (VHH)
VHH: EVQLVESGGGLVQAGGSLRLSCAASGRTFDTYFVGWFRQAPGKERDFVAAISWSGDRTFYADSVKGRFTISRDNAKNTEYLQMNSLKPEDTAVYYCAAREYGRLYSDSEAYDYWGQGTQVTVSS
B9: LG191E4 (VHH)
VHH: EVQLVESGGGLVQAGGSLRLSCAASGPTFSADTMGWFRQAPGKEREFVATIPWSGGIAYYSDSVKGRFTMSRDNAKNTVDLQMNSLKPEDTALYYCAGSSRIYIYSDSLSERSYDYWGQGTQVTVSS
B10: 212-C12 15GS 212-C12 (VHH)
chain: EVQLVESGGGLVQPGGSLRLSCAASGFTFGSSDMSWVRQAPGKGPEWVSGINSGGGRTLYADSVKGRFTISRDNAKNTLYLQMNSLKSEDTAVYYCATDLYGSSWYTDYWSQGTQVTVSSGGGGSGGGGSGGGGSEVQLVESGGGLVQPGGSLRLSCAASGFTFGSSDMSWVRQAPGKGPEWVSGINSGGGRTLYADSVKGRFTISRDNAKNTLYLQMNSLKSEDTAVYYCATDLYGSSWYTDYWSQGTQVTVSS
B11: 214-E8 15GS 214-E8 (VHH)
chain: EVQLVESGGGSVQAGGSLRLSCAASGGTFNPYVMAWFRQAPGNEREFVARIRWSGGDAYYDDSVKGRFAITRDAAKNTVHLQMNSLKPEDTAVYYCAAATYGYGSYTYGGSYDLWGQGTQVTVSSGGGGSGGGGSGGGGSEVQLVESGGGSVQAGGSLRLSCAASGGTFNPYVMAWFRQAPGNEREFVARIRWSGGDAYYDDSVKGRFAITRDAAKNTVHLQMNSLKPEDTAVYYCAAATYGYGSYTYGGSYDLWGQGTQVTVSS
B12: 213-H7 15GS 213-H7 (VHH)
chain: EVQLVESGGGLVQAGGSLRLSCAASGRTLSSYRMGWFRQAPGKEREFISTISWNGRSTYYADSVKGRFIFSEDNAKNTVYLQMNSLKPEDTAVYYCAAALIGGYYSDVDAWSYWGPGTQVTVSSGGGGSGGGGSGGGGSEVQLVESGGGLVQAGGSLRLSCAASGRTLSSYRMGWFRQAPGKEREFISTISWNGRSTYYADSVKGRFIFSEDNAKNTVYLQMNSLKPEDTAVYYCAAALIGGYYSDVDAWSYWGPGTQVTVSS
B13: 213-E6 5GS 213-E6 (VHH)
chain: EVQLVESGGGLVQAGASLRLSCAASGSTLSRYGVGWFRQAPGKERELVASVDWSGSRTYYADSVKGRFTISRDNAKNTGYLQMNSLKPDDTAVYYCAADSSVVPGIEKYDDWGLGTQVTVSSGGGGSEVQLVESGGGLVQAGASLRLSCAASGSTLSRYGVGWFRQAPGKERELVASVDWSGSRTYYADSVKGRFTISRDNAKNTGYLQMNSLKPDDTAVYYCAADSSVVPGIEKYDDWGLGTQVTVSS

Data on 13 molecules can be found in patent publication US20200123233A1.

Chain of Rabies virus glycoprotein G, Challenge Virus Standard (CVS)-11 strain (Rabies virus, strain CVS-11 (genotype 1 Lyssavirus)) (O92284 20-524 limits assumed): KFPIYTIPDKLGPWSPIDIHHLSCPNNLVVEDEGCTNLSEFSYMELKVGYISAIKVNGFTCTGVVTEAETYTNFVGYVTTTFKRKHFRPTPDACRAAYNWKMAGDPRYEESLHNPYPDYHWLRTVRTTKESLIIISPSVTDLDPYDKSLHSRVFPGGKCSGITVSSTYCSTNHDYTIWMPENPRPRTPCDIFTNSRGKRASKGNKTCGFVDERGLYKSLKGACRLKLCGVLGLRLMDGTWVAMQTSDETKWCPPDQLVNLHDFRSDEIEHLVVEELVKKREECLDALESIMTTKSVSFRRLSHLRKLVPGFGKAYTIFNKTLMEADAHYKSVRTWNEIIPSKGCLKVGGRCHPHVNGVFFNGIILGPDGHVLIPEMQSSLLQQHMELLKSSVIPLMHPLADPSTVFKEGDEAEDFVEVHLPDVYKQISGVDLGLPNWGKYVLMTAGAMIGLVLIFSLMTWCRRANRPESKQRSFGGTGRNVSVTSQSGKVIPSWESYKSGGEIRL

The first assay deals with Rabies virus glycoprotein G, ERA strain (attenuated vaccine strain, ATCC VR332) (Rabies virus, ERA strain (genotype 1 lyssavirus)) (UniProt P03524). The assay can be described thus: cell-based or functional assay.
Chain of Rabies virus glycoprotein G, ERA strain (attenuated vaccine strain, ATCC VR332) (Rabies virus, ERA strain (genotype 1 lyssavirus)) (P03524 20-524 limits assumed): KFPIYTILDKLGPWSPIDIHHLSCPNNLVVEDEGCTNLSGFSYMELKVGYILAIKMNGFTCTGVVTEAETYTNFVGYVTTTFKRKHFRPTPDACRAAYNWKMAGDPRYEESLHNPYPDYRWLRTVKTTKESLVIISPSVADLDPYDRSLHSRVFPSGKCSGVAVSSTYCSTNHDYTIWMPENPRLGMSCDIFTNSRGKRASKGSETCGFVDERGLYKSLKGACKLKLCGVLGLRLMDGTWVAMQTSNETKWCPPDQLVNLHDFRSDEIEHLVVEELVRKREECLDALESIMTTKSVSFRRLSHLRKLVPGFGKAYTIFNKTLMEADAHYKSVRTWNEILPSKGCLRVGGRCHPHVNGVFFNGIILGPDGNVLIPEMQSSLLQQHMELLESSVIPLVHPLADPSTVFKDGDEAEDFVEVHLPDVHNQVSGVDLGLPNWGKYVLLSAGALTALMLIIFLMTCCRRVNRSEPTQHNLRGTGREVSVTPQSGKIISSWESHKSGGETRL
Molecule B1 showed an ERA neutralizing antibody titer (RFFIT): EU/mg of less than 0.63 EU/mg, an ERA neutralizing antibody titer (RFFIT): EU/ml of less than 0.5 EU/ml, an ERA neutralizing antibody titer (RFFIT): EU/µM of less than 0.01 EU/µM and an ERA neutralizing antibody titer (RFFIT): nM IC50 greater than 5880 nM.
With B2, the ERA neutralizing antibody titer (RFFIT): EU/mg was 23.8 EU/mg, the ERA neutralizing antibody titer (RFFIT): EU/ml came to 3.81 EU/ml, the ERA neutralizing antibody titer (RFFIT): EU/µM is 0.36 EU/µM and the ERA neutralizing antibody titer (RFFIT): nM IC50 was found to be 94 nM.
For B3, in that order: 35.1 EU/mg, 14 EU/ml, 0.52 EU/µM and 63.7 nM.
For the molecule B4, the ERA neutralizing antibody titer (RFFIT): EU/mg was less than 0.48 EU/mg, the ERA neutralizing antibody titer (RFFIT): EU/ml is less than 0.5 EU/ml, the ERA neutralizing antibody titer (RFFIT): EU/µM was less than 0.01 EU/µM and the ERA neutralizing antibody titer (RFFIT): nM IC50 was greater than 7820 nM.
As for B5, the ERA neutralizing antibody titer (RFFIT): EU/mg is less than 0.43 EU/mg, the ERA neutralizing antibody titer (RFFIT): EU/ml is less than 0.5 EU/ml, the ERA neutralizing antibody titer (RFFIT): EU/µM is less than 0.01 EU/µM and the ERA neutralizing antibody titer (RFFIT): nM IC50 was greater than 8560 nM.
On the same counts, the results for B6 are 8.35 EU/mg, 5.51 EU/ml, 0.12 EU/µM and 268 nM.
The molecule B7 gave an ERA neutralizing antibody titer (RFFIT): EU/mg of 8.91 EU/mg, an ERA neutralizing antibody titer (RFFIT): EU/ml of 5.97 EU/ml, an ERA neutralizing antibody titer (RFFIT): EU/µM of 0.13 EU/µM and an ERA neutralizing antibody titer (RFFIT): nM IC50 of 251 nM.
On the same counts, the results for B8 are 0.55 EU/mg, 0.52 EU/ml, 0.01 EU/µM and 3940 nM.
B9 had an ERA neutralizing antibody titer (RFFIT): EU/mg of less than 0.63 EU/mg, an ERA neutralizing antibody titer (RFFIT): EU/ml of less than 0.5 EU/ml, an ERA neutralizing antibody titer (RFFIT): EU/µM of less than 0.01 EU/µM and an ERA neutralizing antibody titer (RFFIT): nM IC50 greater than 5960 nM.

The next assay addresses Rabies virus glycoprotein G, Challenge Virus Standard (CVS)-11 strain (Rabies virus, strain CVS-11 (genotype 1 Lyssavirus)) (UniProt O92284). The assay can be described thus: cell-based or functional assay.
In the case of B1, the CVS-11 neutralizing antibody titer (RFFIT), IU/mg was less than 0.63 IU/mg; the CVS-11 neutralizing antibody titer (RFFIT), IU/ml is less than 0.5 IU/ml; the CVS-11 neutralizing antibody titer (RFFIT), IU/µM is less than 0.01 IU/µM; the CVS-11 neutralizing antibody titer (RFFIT), nM IC50 is greater than 5880 nM.
For the molecule B2, the CVS-11 neutralizing antibody titer (RFFIT), IU/mg was determined as 7.19 IU/mg; the CVS-11 neutralizing antibody titer (RFFIT), IU/ml is 1.15 IU/ml; the CVS-11 neutralizing antibody titer (RFFIT), IU/µM turned out to be 0.11 IU/µM; the CVS-11 neutralizing antibody titer (RFFIT), nM IC50 is 325 nM.
B3 gave a CVS-11 neutralizing antibody titer (RFFIT), IU/mg of 10.6 IU/mg; a CVS-11 neutralizing antibody titer (RFFIT), IU/ml of 4.24 IU/ml; a CVS-11 neutralizing antibody titer (RFFIT), IU/µM of 0.16 IU/µM; a CVS-11 neutralizing antibody titer (RFFIT), nM IC50 of 220 nM.
As for B4, the CVS-11 neutralizing antibody titer (RFFIT), IU/mg is less than 0.48 IU/mg; the CVS-11 neutralizing antibody titer (RFFIT), IU/ml was less than 0.5 IU/ml; the CVS-11 neutralizing antibody titer (RFFIT), IU/µM was less than 0.01 IU/µM; the CVS-11 neutralizing antibody titer (RFFIT), nM IC50 was greater than 7820 nM.
For B5, in that order: 7.93 IU/mg, 9.12 IU/ml, 0.12 IU/µM and 293 nM.
Molecule B6 had a CVS-11 neutralizing antibody titer (RFFIT), IU/mg of 7.38 IU/mg; a CVS-11 neutralizing antibody titer (RFFIT), IU/ml of 4.87 IU/ml; a CVS-11 neutralizing antibody titer (RFFIT), IU/µM of 0.11 IU/µM; a CVS-11 neutralizing antibody titer (RFFIT), nM IC50 of 316 nM.
For B7, in that order: 7.61 IU/mg, 5.1 IU/ml, 0.11 IU/µM and 305 nM.
In the case of B8, the CVS-11 neutralizing antibody titer (RFFIT), IU/mg worked out at 1.72 IU/mg; the CVS-11 neutralizing antibody titer (RFFIT), IU/ml was 1.62 IU/ml; the CVS-11 neutralizing antibody titer (RFFIT), IU/µM is 0.03 IU/µM; the CVS-11 neutralizing antibody titer (RFFIT), nM IC50 turned out to be 1340 nM.
B9 showed a CVS-11 neutralizing antibody titer (RFFIT), IU/mg of less than 0.63 IU/mg; a CVS-11 neutralizing antibody titer (RFFIT), IU/ml of less than 0.5 IU/ml; a CVS-11 neutralizing antibody titer (RFFIT), IU/µM of less than 0.01 IU/µM; a CVS-11 neutralizing antibody titer (RFFIT), nM IC50 greater than 5960 nM.

The target of a further assay is Rabies virus glycoprotein G, strain CVS-11 (Challenge Virus Standard-11, ATCC VR 959) (Rabies virus, strain CVS-11). Nature of the assay: cell-based or functional assay.
In the case of B10, the CVS neutralizing antibody titre (RFFIT): IU/mg came out at 330 IU/mg, the CVS neutralizing antibody titre (RFFIT): IU/ml came out at 330 IU/ml, the CVS neutralizing antibody titre (RFFIT): IU/nM came out at 8.57 IU/nM and the CVS neutralizing antibody titre (RFFIT): nM IC50 worked out at 3.74 nM. The same molecule yielded a Potency (IU/nM) increase versus monovalent of 4.6 fold.
On to B11, for which the CVS neutralizing antibody titre (RFFIT): IU/mg worked out at 349 IU/mg, the CVS neutralizing antibody titre (RFFIT): IU/ml came to 454 IU/ml, the CVS neutralizing antibody titre (RFFIT): IU/nM worked out at 9.78 IU/nM and the CVS neutralizing antibody titre (RFFIT): nM IC50 came out at 3.28 nM. For the same molecule, the Potency (IU/nM) increase versus monovalent was 31.5 fold.
B12 returned a CVS neutralizing antibody titre (RFFIT): IU/mg of 549 IU/mg, a CVS neutralizing antibody titre (RFFIT): IU/ml of 412 IU/ml, a CVS neutralizing antibody titre (RFFIT): IU/nM of 15.4 IU/nM and a CVS neutralizing antibody titre (RFFIT): nM IC50 of 2.09 nM. The Potency (IU/nM) increase versus monovalent stood at 34.2 fold.
Consider B13, for which the CVS neutralizing antibody titre (RFFIT): IU/mg came out at 1300 IU/mg, the CVS neutralizing antibody titre (RFFIT): IU/ml came out at 1290 IU/ml, the CVS neutralizing antibody titre (RFFIT): IU/nM stood at 36 IU/nM and the CVS neutralizing antibody titre (RFFIT): nM IC50 was 0.88 nM. The molecule also displayed a Potency (IU/nM) increase versus monovalent of 27.7 fold.
